Laboratory results taken from US20130288305A1.

Tests used:
Experiment in all cases: cell-based or functional assay
[1] = target: FGFR2-IIIb N550K expressed on FDCP-1 cells (human), P21802
[2] = target: FGFR2-IIIb S252W expressed on FDCP-1 cells (human), P21802
[3] = target: wild type FGFR2-IIIb expressed on FDCP-1 cells (human), P21802

IC50 of inhibition of cell proliferation (MTT assay) [1]: 8.1 nM
IC50 of inhibition of cell proliferation (MTT assay) [2]: 3 nM
IC50 of inhibition of cell proliferation (MTT assay) [3]: 0.3 nM
B1: antibody 4B9 (antibody)
heavy: EVQLQQSGTVLARPGASVKMSCKTSGYTFTSYWMHWVKQRPGQGLEWIGAIYPGNSDTDYSQKFKGKATLTAVTSATTAYMELSSLTNEDSAVYYCSKFDYWGQGTTLTVSSAKTTPPSVYPLAPGSAAQTNSMVTLGCLVKGYFPEPVTVTWNSGSLSSGVHTFPAVLQSDLYTLSSSVTVPSSTWPSQTVTCNVAHPASSTKVDKKIVPRDCGCKPCICTVPEVSSVFIFPPKPKDVLTITLTPKVTCVVVDISKDDPEVQFSWFVDDVEVHTAQTQPREEQFNSTFRSVSELPIMHQDWLNGKEFKCRVNSAAFPAPIEKTISKTKGRPKAPQVYTIPPPKEQMAKDKVSLTCMITDFFPEDITVEWQWNGQPAENYKNTQPIMDTDGSYFVYSKLNVQKSNWEAGNTFTCSVLHEGLHNHHTEKSLSHSPGK
light: QIVLTQSPALMSASPGEKVTMTCSASSSVNYMYWYQQKPRSSPKPWIYLTSNLASGVPARFSGRGSGTSYSLTISSMEAEDAATYYCQQWSSNPYTFGGGTKLEIKRADAAPTVSIFPPSSEQLTSGGASVVCFLNNFYPRDINVKWKIDGSERQNGVLNSWTDQDSKDSTYSMSSTLTLTKDEYERHNSYTCEATHKTSTSPIVKSFNRNEC
